We go through six molecules from US20250304707A1.

In test [1] the target is T1, human APRIL/TNFSF13 (human), O75888.
T1 chain: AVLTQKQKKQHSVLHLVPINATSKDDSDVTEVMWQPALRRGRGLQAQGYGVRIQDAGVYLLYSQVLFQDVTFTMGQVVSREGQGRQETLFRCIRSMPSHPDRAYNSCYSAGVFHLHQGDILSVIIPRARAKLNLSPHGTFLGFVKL
In words: BLI (Octet RED384), APRIL/TNFSF13 on AR2G sensors, 71 nM human BCMA analyte, no antibody. The following applies: remark: other sources report otherwise. (In BLI a coated tip is dipped into the sample, and binding shifts an interference pattern.)

The target of test [2] is biotinylated human BCMA (human) (UniProt Q02223). In words: BLI (Octet RED384), biotinylated human BCMA on SAX sensors, scFv 1200 nM analyte, 1:1 model.

B1: human BCMA (soluble analyte of Examples 8 and 14), Q02223 1-54 (receptor, UniProt Q02223 1-54, looked up)
chain: MLQMAGQCSQNEYFDSLLHACIPCQLRCSSNTPPLTCQRYCNASVTNSVKGTNA
Turning to B1, the Response in test [1] was determined as 0.659 nm.

B2: 01-024 (scFv) (scFv, part only; not given: linker, domain order, Myc-His tags, V domains shown, not shown: another chain or arm of the molecule; small tags and cut ends)
VH: EVQLVQSGGGLVQSGGSLRVSCAASGFTFSSGLMSWVRQAPGKGFEWVSCYNGGSDRAGYTDSVKGRFTISRDNAKNTLYLQMNSLKPEDTAVYYCARYIANSGTYYWDYWGQGTTVTVSS
VL: QAVLTQPPSASGTPGQRVSISCSGGISNIGSNIVNWYQHLPGTAPKLLIYSGNQRPSGVPDRFSGSKSGTSASLAISGLQSEDEADYYCSSWDSDLRNWVFGGGTKLTVL
Broadly, the Kd is the concentration at which binding is half-saturated. Low readings indicate a tighter complex, high ones a looser complex. Usually koff stands for a measure of how fast the partners let go of each other. What is called kon is a measure of how fast the partners come together. B2: in test [2], the Kd was determined as 1.5 nM, the Response was found to be 0.174 nm, the koff is 0.00057 s⁻¹ and the kon turned out to be 380000 M⁻¹ s⁻¹.

B3: 01-026 (scFv) (scFv, part only; not given: linker, domain order, Myc-His tags, V domains shown, not shown: another chain or arm of the molecule; small tags and cut ends)
VH: EVQLVQSGGGLVQSGGSLRVSCAASGFTFSSGLMSWVRQAPGKGFEWVSGYNGGSDRAGYTDSVKGRFTISRDNAKNTLYLQMNSLKPEDTAVYYCARYIANSGTYYWDYWGQGTTVTVSS
VL: QSVLTQPPSVSGAPGQRVTISCTGSSSNIGAGYDVHWYQQLPGTAPKLVIYGNTNRPSGVPDRFSGSKSGTSASLAISGLQSEDEADYYCAAWDDSLNGWVFGGGTKLTVL
On to B3, for which, in test [2], the Kd stood at 59.6 nM, the Response turned out to be 0.115 nm, the koff was 0.00248 s⁻¹ and the kon turned out to be 41700 M⁻¹ s⁻¹.

B4: 01-030 (scFv) (scFv, part only; not given: linker, domain order, Myc-His tags, V domains shown, not shown: another chain or arm of the molecule; small tags and cut ends)
VH: EVQLVQSGGGLVQPGGSLRVSCAASGFSFSSGLMSWVRQAPGKGFEWVSGYNGGSDRAGFADSVEGRFTISRDNAKNTLYLQMNSLKPEDTAVYYCARYIANSGTYYWDYWGQGTLVTVSS
VL: QSALTQPPSASGTPGQRVTISCSGSISNIGSNTVNWYQHLPGTAPKLLIYNHNQRPSGVPDRFSGSTSGTSASLAISGLQSEDEADYFCATWDDSLSAWLFGGGTKLTVL
With B4, in test [2], the Kd was 8.42 nM, the Response came out at 0.172 nm, the koff is 0.000939 s⁻¹ and the kon was found to be 112000 M⁻¹ s⁻¹.

B5: 01-027 (scFv) (scFv, part only; not given: linker, domain order, Myc-His tags, V domains shown, not shown: another chain or arm of the molecule; small tags and cut ends)
VH: EVQLVQSGGGLVQSGGSLRVSCAASGFTFSSGLMSWVRQAPGKGFEWVSGYNGGSDRAGYTDSVKGRFTISRDNAKNTLYLQMNSLKPEDTAVYYCARYIANSGTYYWDYWGQGTTVTVSS
VL: QAVLTQPPSASGTPGQRVSISCSGGISNIGSNIVNWYQHLPGTAPKLLIYSGNQRPSGVPDRFSGSKSGTSASLAISGLQSEDEADYYCSSWDSDLRNWVFGGGTKLTVL
In test [2], B5 showed a Kd of 3.38 nM, a Response of 0.171 nm, a koff of 0.00096 s⁻¹ and a kon of 284000 M⁻¹ s⁻¹.

B6: 01-025 (scFv) (scFv, part only; not given: linker, domain order, Myc-His tags, V domains shown, not shown: another chain or arm of the molecule; small tags and cut ends)
VH: EVQLVQSGGGLVQSGGSLRVSCAASGFTFSSGLMSWVRQAPGKGFEWVSGYNGGSDRAGYTDSVKGRFTISRDNAKNTLYLQMNSLKPEDTAVYYCARYIANSGTYYWDYWGQGTTVTVSS
VL: QPVLTQPPSVSEAPRQRVTISCSGSSSNIGNNAVNWYQQLPGKAPKLLIYSTNQRPSGVPDRFSGSKSGTSASLAISGLQSEDEADYYCAAWDDRVSAWLFGGGTKLTVL
Regarding B6, in test [2], the Kd stood at 15.5 nM, the Response is 0.183 nm, the koff worked out at 0.00128 s⁻¹ and the on-rate (kon) is 82600 M⁻¹ s⁻¹.
